# T1: yRev1 305-746 (Saccharomyces cerevisiae, UniProt P12689 305-746)
# T1 sequence: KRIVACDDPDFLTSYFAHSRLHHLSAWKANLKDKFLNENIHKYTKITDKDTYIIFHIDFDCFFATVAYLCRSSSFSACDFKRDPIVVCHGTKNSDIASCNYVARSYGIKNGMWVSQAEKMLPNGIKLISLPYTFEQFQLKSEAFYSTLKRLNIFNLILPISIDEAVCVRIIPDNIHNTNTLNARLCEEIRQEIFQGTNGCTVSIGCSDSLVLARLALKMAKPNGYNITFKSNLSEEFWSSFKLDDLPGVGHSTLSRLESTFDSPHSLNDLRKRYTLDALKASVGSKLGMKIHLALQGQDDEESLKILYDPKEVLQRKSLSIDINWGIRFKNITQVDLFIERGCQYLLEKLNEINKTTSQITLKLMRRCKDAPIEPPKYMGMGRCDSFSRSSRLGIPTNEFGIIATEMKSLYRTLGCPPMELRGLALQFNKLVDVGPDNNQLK
# T2: hRev1 330-833 EY (human, UniProt Q9UBZ9 330-833, E466A;Y470A)
# T2 sequence: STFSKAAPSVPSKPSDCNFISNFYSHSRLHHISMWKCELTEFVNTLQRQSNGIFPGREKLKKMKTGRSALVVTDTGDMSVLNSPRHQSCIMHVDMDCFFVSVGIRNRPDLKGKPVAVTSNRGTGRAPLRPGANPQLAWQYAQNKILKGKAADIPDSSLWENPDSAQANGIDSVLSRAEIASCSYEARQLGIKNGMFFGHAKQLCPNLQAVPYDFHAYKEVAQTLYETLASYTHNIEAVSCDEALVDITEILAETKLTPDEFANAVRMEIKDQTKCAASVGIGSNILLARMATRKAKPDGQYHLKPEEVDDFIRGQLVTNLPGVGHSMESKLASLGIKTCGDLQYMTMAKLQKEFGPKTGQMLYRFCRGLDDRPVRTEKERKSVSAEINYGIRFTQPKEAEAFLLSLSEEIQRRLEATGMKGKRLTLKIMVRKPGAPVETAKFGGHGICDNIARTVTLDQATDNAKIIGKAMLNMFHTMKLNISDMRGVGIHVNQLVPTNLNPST
# T3: hRev1 330-833 WT (human, UniProt Q9UBZ9 330-833)
# T3 sequence: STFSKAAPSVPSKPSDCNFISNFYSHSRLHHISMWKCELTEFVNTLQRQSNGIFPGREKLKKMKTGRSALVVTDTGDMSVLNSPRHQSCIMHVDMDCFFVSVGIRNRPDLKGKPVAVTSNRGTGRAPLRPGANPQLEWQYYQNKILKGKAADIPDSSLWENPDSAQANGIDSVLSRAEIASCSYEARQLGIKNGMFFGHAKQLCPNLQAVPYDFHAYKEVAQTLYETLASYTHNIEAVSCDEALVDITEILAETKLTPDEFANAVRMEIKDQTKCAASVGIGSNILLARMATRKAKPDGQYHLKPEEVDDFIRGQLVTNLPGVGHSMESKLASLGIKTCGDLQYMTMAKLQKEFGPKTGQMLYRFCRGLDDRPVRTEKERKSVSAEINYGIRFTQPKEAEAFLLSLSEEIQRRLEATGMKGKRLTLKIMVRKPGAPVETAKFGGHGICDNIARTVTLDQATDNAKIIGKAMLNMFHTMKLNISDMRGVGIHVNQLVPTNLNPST
# What was measured:
# Experiment in all cases: fluorescence polarization
# yRev1 305-746 = biological target: T1, yRev1 305-746
# hRev1 330-833 EY = biological target: T2, hRev1 330-833 EY
# hRev1 330-833 WT = biological target: T3, hRev1 330-833 WT
Binder,Kd (yRev1 305-746) [nM],Kd (hRev1 330-833 EY) [nM],Kd (hRev1 330-833 WT) [nM]
p/t non-G4 Myc (mixed) DNA 1: AGCGTGCGTAGCGTGCGTTATGAGATGAT DNA 2: ATCATCTCATA,480 ± 40,830 ± 120,–
GTGAGATGTTGACCATGGGTGCGTCTGCGGCTGGCTCGAGGC (ssDNA) [ss-42-mer non-G4],340 ± 60,270 ± 50,85 ± 11
23/42-mer non-G4 (mixed) DNA 1: GTGAGATGTTGACCATGGGTGCGTCTGCGGCTGGCTCGAGGC DNA 2: TTTGCCTCGAGCCAGCCGCAGACGCA,460 ± 50,300 ± 40,210 ± 30
13/42-mer non-G4 (mixed) DNA 1: GTGAGATGTTGACCATGGGTGCGTCTGCGGCTGGCTCGAGGC DNA 2: TTTGCCTCGAGCCAGC,–,250 ± 30,230 ± 30
AGCGTGCGTAGCGTGCGTTATGAGATGAT (ssDNA) [ss non-G4 Myc],340 ± 60,650 ± 130,–
TGCTTGCTGTGCTTGCTATGAGATGAT (ssDNA) [ss non-G4 TBA],450 ± 70,150 ± 20,–
TTGCGTTAGCGTTAGCGTTAGCGATATGAGATGAT (ssDNA) [ss non-G4 Telo-4],310 ± 40,–,–
TGAGGGTGGGTAGGGTGGGTGCGTCTGCGGCTGGCTCGAGGC (structured_DNA) [ss-42-mer Myc G4],230 ± 50,87 ± 10,4 ± 1
13/42-mer G4 (mixed) DNA 1: TGAGGGTGGGTAGGGTGGGTGCGTCTGCGGCTGGCTCGAGGC DNA 2: TTTGCCTCGAGCCAGC,–,–,31 ± 6
23/42-mer G4 (mixed) DNA 1: TGAGGGTGGGTAGGGTGGGTGCGTCTGCGGCTGGCTCGAGGC DNA 2: TTTGCCTCGAGCCAGCCGCAGACGCA,–,–,88 ± 12
p/t non-G4 TBA (mixed) DNA 1: TGCTTGCTGTGCTTGCTATGAGATGAT DNA 2: ATCATCTCATA,450 ± 30,230 ± 30,–

# Source: article PMC10320842
